Legend:
[1] = molecular target: T1, 4H1328-bA; assay: two-hybrid library CCNG1;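 note: natural log of median RNA to DNA barcode read ratio; higher means stronger binding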
T1 chain: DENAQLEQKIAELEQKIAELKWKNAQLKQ

[2] = molecular target: T2, 4H1369-bA; assay: two-hybrid library CCNG1;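 note: natural log of median RNA to DNA barcode read ratio; higher means stronger binding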
T2 chain: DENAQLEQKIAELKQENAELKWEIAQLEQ

[3] = molecular target: T3, 4H1446-bA; assay: two-hybrid library CCNG1;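 note: natural log of median RNA to DNA barcode read ratio; higher means stronger binding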
T3 chain: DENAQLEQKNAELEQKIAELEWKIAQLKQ

[4] = molecular target: T4, 4H1845-bA; assay: two-hybrid library CCNG1;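 note: natural log of median RNA to DNA barcode read ratio; higher means stronger binding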
T4 chain: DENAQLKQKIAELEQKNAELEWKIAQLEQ

[5] = molecular target: T5, 4H2576-bA; assay: two-hybrid library CCNG1;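 note: natural log of median RNA to DNA barcode read ratio; higher means stronger binding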
T5 chain: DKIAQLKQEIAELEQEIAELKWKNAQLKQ

[6] = molecular target: T6, 4H2610-bA; assay: two-hybrid library CCNG1;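 note: natural log of median RNA to DNA barcode read ratio; higher means stronger binding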
T6 chain: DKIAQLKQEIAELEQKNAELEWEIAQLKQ

[7] = molecular target: T7, 4H2667-bA; assay: two-hybrid library CCNG1
T7 chain: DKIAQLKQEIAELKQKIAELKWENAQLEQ

[8] = molecular target: T8, 4H2697-bA; assay: two-hybrid library CCNG1
T8 chain: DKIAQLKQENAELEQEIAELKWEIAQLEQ

[9] = molecular target: T9, 4H3189-bA; assay: two-hybrid library CCNG1
T9 chain: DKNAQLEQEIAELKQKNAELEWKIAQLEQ

[10] = molecular target: T10, 4H331-bA; assay: two-hybrid library CCNG1
T10 chain: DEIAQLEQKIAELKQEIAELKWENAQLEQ

[11] = molecular target: T11, 4H346-bH; assay: two-hybrid library CCNG1
T11 chain: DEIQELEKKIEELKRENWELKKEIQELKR

[12] = molecular target: T12, 4H3606-bA; assay: two-hybrid library CCNG1
T12 chain: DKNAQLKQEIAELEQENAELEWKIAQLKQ

[13] = molecular target: T13, 4H370-bA; assay: two-hybrid library CCNG1
T13 chain: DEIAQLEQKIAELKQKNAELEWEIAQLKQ

[14] = molecular target: T14, 4H3782-bA; assay: two-hybrid library CCNG1
T14 chain: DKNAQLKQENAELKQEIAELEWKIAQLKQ

[15] = molecular target: T15, 4H3843-bA; assay: two-hybrid library CCNG1
T15 chain: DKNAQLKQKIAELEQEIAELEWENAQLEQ

[16] = molecular target: T16, 4H4001-bA; assay: two-hybrid library CCNG1
T16 chain: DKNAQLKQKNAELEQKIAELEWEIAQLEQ

[17] = molecular target: T17, 4H462-bA; assay: two-hybrid library CCNG1
T17 chain: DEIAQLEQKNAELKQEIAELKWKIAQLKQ

[18] = molecular target: T18, 4H568-bA; assay: two-hybrid library CCNG1
T18 chain: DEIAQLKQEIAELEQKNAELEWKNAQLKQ

[19] = molecular target: T19, 4H607-bA; assay: two-hybrid library CCNG1
T19 chain: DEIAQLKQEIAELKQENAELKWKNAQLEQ

[20] = molecular target: T20, 4H687-bA; assay: two-hybrid library CCNG1
T20 chain: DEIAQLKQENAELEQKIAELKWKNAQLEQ

[21] = molecular target: T21, 4H72-bA; assay: two-hybrid library CCNG1
T21 chain: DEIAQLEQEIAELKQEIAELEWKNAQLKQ

[22] = molecular target: T22, 4H797-bA; assay: two-hybrid library CCNG1
T22 chain: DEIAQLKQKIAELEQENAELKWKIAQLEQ

[23] = molecular target: T23, 4H883-bA; assay: two-hybrid library CCNG1
T23 chain: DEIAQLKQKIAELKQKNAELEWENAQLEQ

[24] = molecular target: T24, 4H918-bA; assay: two-hybrid library CCNG1
T24 chain: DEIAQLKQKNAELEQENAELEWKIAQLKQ

[25] = molecular target: T25, 4H953-bA; assay: two-hybrid library CCNG1
T25 chain: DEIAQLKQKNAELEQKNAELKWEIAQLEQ

[26] = molecular target: T26, 4H967-bA; assay: two-hybrid library CCNG1
T26 chain: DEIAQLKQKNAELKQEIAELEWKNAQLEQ

[27] = molecular target: T27, P4SH; assay: two-hybrid library CCNG1
T27 chain: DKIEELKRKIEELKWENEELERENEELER

[28] = molecular target: T28, P5SH; assay: two-hybrid library CCNG1
T28 chain: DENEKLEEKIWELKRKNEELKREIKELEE

[29] = molecular target: T29, P6SH; assay: two-hybrid library CCNG1
T29 chain: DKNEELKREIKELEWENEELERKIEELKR

[30] = molecular target: T30, P7SH; assay: two-hybrid library CCNG1
T30 chain: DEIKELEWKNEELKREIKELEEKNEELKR

[31] = molecular target: T31, P8SH; assay: two-hybrid library CCNG1
T31 chain: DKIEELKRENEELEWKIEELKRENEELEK

[32] = molecular target: T32, O10; assay: two-hybrid library CC0; settings: mean of both orientations
T32 chain: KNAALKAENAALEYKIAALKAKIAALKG

[33] = molecular target: T33, O11; assay: two-hybrid library CC0; settings: mean of both orientations
T33 chain: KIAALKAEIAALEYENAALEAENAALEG

[34] = molecular target: T34, O12; assay: two-hybrid library CC0; settings: mean of both orientations
T34 chain: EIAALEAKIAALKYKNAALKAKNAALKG

[35] = molecular target: T35, O13; assay: two-hybrid library CC0; settings: mean of both orientations
T35 chain: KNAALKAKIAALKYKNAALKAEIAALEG

[36] = molecular target: T36, O14; assay: two-hybrid library CC0; settings: mean of both orientations
T36 chain: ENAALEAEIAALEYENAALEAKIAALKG

[37] = molecular target: T37, O15; assay: two-hybrid library CC0; settings: mean of both orientations
T37 chain: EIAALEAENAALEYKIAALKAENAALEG

[38] = molecular target: T38, O16; assay: two-hybrid library CC0; settings: mean of both orientations
T38 chain: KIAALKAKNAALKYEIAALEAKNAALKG

[39] = molecular target: T39, O2; assay: two-hybrid library CC0; settings: mean of both orientations
T39 chain: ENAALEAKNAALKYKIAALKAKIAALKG

[40] = molecular target: T40, O3; assay: two-hybrid library CC0; settings: mean of both orientations
T40 chain: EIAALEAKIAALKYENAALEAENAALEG

[41] = molecular target: T41, O4; assay: two-hybrid library CC0; settings: mean of both orientations
T41 chain: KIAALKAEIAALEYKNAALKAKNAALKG

[42] = molecular target: T42, O5; assay: two-hybrid library CC0; settings: mean of both orientations
T42 chain: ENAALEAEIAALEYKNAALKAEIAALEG

[43] = molecular target: T43, O6; assay: two-hybrid library CC0; settings: mean of both orientations
T43 chain: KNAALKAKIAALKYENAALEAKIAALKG

[44] = molecular target: T44, O7; assay: two-hybrid library CC0; settings: mean of both orientations
T44 chain: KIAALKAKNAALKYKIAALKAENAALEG

[45] = molecular target: T45, O8; assay: two-hybrid library CC0; settings: mean of both orientations
T45 chain: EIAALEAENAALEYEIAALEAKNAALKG

[46] = molecular target: T46, O9; assay: two-hybrid library CC0; settings: mean of both orientations
T46 chain: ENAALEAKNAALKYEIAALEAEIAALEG

Binder DENAQLEQKIAELEQKIAELKWKNAQLKQ [4H1328-bA] has an interaction score [1] of 1.62, an interaction score [2] of -0.903 and an interaction score [3] of 0.372. It also gave an interaction score [4] of -0.257, an interaction score [5] of 1.95 and an interaction score [6] of -0.633. For the same binder, the interaction score [7] was 0.432, the interaction score [8] was 0.429 and the interaction score [9] was -0.907. For the same binder, the interaction score [10] was 1.02, the interaction score [11] was 0.114 and the interaction score [12] was 0.221. For the same binder, the interaction score [13] was -0.958, the interaction score [14] was 0.142 and the interaction score [15] was 1.8. It also gave an interaction score [16] of 1.48, an interaction score [17] of -0.405 and an interaction score [18] of -0.0125. It also gave an interaction score [19] of -0.918, an interaction score [20] of -0.983 and an interaction score [21] of 1.25. It also gave an interaction score [22] of -1.68, an interaction score [23] of -0.916 and an interaction score [24] of -0.412. For the same binder, the interaction score [25] was -0.977 and the interaction score [26] was -0.292.

With DKIEELKRKIEELKWENEELERENEELER [P4SH] the interaction score [27] was -0.1, the interaction score [28] was -0.643 and the interaction score [29] was -0.892. It also gave an interaction score [30] of -1.17 and an interaction score [31] of -0.776.

KNAALKAENAALEYKIAALKAKIAALKG [O10] was tested, and the interaction score [32] was -2.67, the interaction score [33] was -2.65 and the interaction score [34] was -2.82. It also gave an interaction score [35] of -2.76, an interaction score [36] of -2.57 and an interaction score [37] of -2.76. For the same binder, the interaction score [38] was -2.56, the interaction score [39] was -1.28 and the interaction score [40] was -2.6. The interaction score [41] was -2.63, the interaction score [42] was -1.82 and the interaction score [43] was -2.76. The interaction score [44] was -2.72, the interaction score [45] was -2.5 and the interaction score [46] was 1.47.

Source: paper PMC10397247
